These results are taken from article doi:10.1101/2024.06.03.594717.

One assay deals with GST-FBXO22-SKP1 (human) (UniProt Q8NEZ5). Put plainly: BLI; Octet Red 96, anti-GST probes loaded with 200 nM GST-FBXO22-SKP1, BACH1-BTB as analyte, 30°C; 25 mM HEPES pH 7.4, 100 mM NaCl, 1 mM TCEP, 0.1% Tween-20, 0.05 mg/mL BSA; Kd from steady-state equilibrium.
In assay [1] the target is Tag-free FBXO22-SKP1 complex (human) (UniProt Q8NEZ5). Put plainly: SEC-MALS; Superdex 200 10/300 GL, 20 mM Tris-HCl pH 8.0, 150 mM NaCl, 0.25 mM TCEP, room temperature; tag-free FBXO22-SKP1, His-BACH1-BTB and their mixture. (Size exclusion chromatography separates by hydrodynamic size, large species first.)
Sequence of Tag-free FBXO22-SKP1 complex (human) (Q8NEZ5 whole entry, chain 1 of 2): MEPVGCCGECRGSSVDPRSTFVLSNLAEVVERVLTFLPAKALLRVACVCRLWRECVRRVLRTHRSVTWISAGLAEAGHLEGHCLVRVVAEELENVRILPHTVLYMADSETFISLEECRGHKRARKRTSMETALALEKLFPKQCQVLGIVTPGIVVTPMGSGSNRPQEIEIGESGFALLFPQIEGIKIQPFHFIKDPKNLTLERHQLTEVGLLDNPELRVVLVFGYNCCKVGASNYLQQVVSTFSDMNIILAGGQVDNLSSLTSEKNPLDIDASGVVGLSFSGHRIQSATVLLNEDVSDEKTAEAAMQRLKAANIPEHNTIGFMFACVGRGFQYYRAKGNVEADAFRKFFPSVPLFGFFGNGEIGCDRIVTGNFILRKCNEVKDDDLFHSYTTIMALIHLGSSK
Sequence of Tag-free FBXO22-SKP1 complex (human) (P63208 whole entry, chain 2 of 2, further chain): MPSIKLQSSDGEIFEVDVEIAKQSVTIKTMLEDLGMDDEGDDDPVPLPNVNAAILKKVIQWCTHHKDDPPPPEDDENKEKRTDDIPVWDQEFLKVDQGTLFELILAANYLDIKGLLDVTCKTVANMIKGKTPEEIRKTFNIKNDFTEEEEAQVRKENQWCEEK

Sequence of BACH1 BTB domain (O14867 7-128): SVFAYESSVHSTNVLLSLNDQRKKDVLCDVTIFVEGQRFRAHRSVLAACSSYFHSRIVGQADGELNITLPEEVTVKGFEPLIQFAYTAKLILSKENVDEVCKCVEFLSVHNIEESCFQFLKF
Sequence of His-BACH1-BTB (O14867 7-128): as above
Sequence of GST-FBXO22-SKP1 (human) (Q8NEZ5 whole entry, chain 1 of 2): as the sequence (Q8NEZ5 whole entry, chain 1 of 2) above
Sequence of GST-FBXO22-SKP1 (human) (P63208 whole entry, chain 2 of 2, further chain): as the sequence (P63208 whole entry, chain 2 of 2, further chain) above

With “BACH1 BTB domain (from UniProt O14867 7-128) (domain or fragment)”, in the assay with GST-FBXO22-SKP1 (human), the Kd is 90 nM.

As for “His-BACH1-BTB (from UniProt O14867 7-128) (domain or fragment)”, the stoichiometry N (FBXO22-SKP1 per BACH1 BTB dimer) in assay [1] was determined as 1.

Usually Kd stands for a measure of binding affinity in units of concentration. Low readings indicate a tighter complex, high ones a looser complex.
